Data reported in patent US20050197296A1, “Agents for preventing and treating thrombocytopenia” (CHUGAI SEIYAKU KABUSHIKI KAISHA, priority 1996, published 2005).

Assays:
platelet count [1] = assay: Test for daily administration to rabbit (platelet increasing action); assay type: in vivo, Japanese albino rabbits JW/CSK; conditions: 200 μg/kg subcutaneous daily
Description: Six 12-15 week old male Japanese albino rabbits JW/CSK were used in the experiment. The animals were individually kept in aluminum rabbit bracket cages Rb-1 (350^w×500^d×350^h mm) in a vavarium in a specific pathogen-free environment under the following conditions: temperature, 24±2° C.; humidity, 50±10%; illumination, light turned on at 5:00 and turned off at 19:00; ventilation, 15 changes/hr. Each animal was supplied with 120 g of a radiation-sterilized feed for rabbits RM (purchased from Funahashi Farm) per day. The animals were also allowed to drink to tap water ad libitum from an automatic water feeder.
Human PTH(1-84) was administered in a volume of 2 mL/vial at a concentration of 200 μg/mL. A solvent was also supplied in a volume of 2 mL/vial. Both the drug and the control were stored at −135° C. until use.
PTH (200 μg/kg) was administered to the rabbits subcutaneously at the back of their neck for 13 consecutive days. The solvent was similarly administered in the same volume as the dose of a rh-PTH solution calculated from their body weight.
Blood samples (0.5 mL) were withdrawn from the rabbits through the lateral auricular vein before the administration and on days 2, 6, 9 and 13 during the administration period. […]

platelet count [2] = assay: Test for daily administration to mouse (platelet increasing action); assay type: in vivo, C57B1/6N mice; conditions: subcutaneous once a day
Description: Nine-week old male C57B1/6N mice as purchased from Japan Charles River Co., Ltd. were used in the experiment.
Drug solutions to be administered were prepared basically by the same procedure as in Example 1 to give drug concentrations of 5, 20 and 80 μg/mL.
The mice under test were divided into four groups, which were administered subcutaneously with the three drug solutions and a control (citrate buffer) once a day in a volume of 10 mL/kg. […] The administration was initiated at 10 a.m.
On days 5, 7 and 9 after the start of administration, five or six mice were picked up at random from each group of animals and blood samples were withdrawn through the orbital vein. The sampling of blood was timed to occur 24 h of the final administration. Separate blood samples were taken from untreated mice (five in number) to obtain the value for normal mouse. Peripheral corpuscle counts were obtained with an automatic corpuscle counter F-800(TOA MEDICAL ELECTRONICS CO., LTD.).

platelet counts = assay: Test for single-dose administration to mouse (platelet increasing action); assay type: in vivo, C57B1/6N mice; conditions: single dose 10 μg/kg through the tail vein, 6 and 9 h after the administration
Description: Nine-week old male C57B1/6N mice as purchased from Japan Charles River Co. Ltd. were used in the experiment.
Human PTH(1-84) was dissolved in a citrate buffer (pH 5; containing 0.05% of Tween 80) at final concentrations of 1, 0.2 and 0.04 ˜g/mL so as to prepare the drug solutions to be administered.
Each of the thus prepared drug solutions and a control (citrate buffer) was administered to 15 mice through the tail vein in a volume of 10 mL/kg. […] The administration was initiated at 10 a.m.
After 3, 6 and 9 hours of the administration, five mice were picked up at random from each group of animals and blood samples were withdrawn through the orbital vein. At 10 a.m. on the same day, separate blood samples were taken from untreated mice (four in number) to obtain the preadministration value. Peripheral corpuscle counts were obtained with an automatic corpuscle counter F-800 (TOA MEDICAL ELECTRONICS CO., LTD

platelet count [3] = assay: Effectiveness of PTH derivative, daily administration to mouse; assay type: in vivo, C57B1/6N mice; conditions: 200 μg/kg subcutaneous once a day for six days, blood 24 h after final administration
Description: Ten-week old male C57B1/6N mice as purchased from Japan Charles River Co., Ltd. were used in the experiment.
Drug solutions to be administered were prepared basically from human PTH(1-84) and human PTH(1-34) by the same procedure as in Example 1 to give a drug concentration of 20 μg/mL.
Eighteen mice were divided into three groups, which were administered subcutaneously with the two drug solutions and a control (citrate buffer) for six days on a once-a-day basis in a volume of 10 mL/kg. […] The administration was initiated at 10 a.m.
After 24 h of the final administration, a blood sample was withdrawn from each mouse through the orbital vein. Peripheral corpuscle counts were obtained with an automatic corpuscle counter F-800 (TOA MEDICAL ELECTRONICS CO., LTD).

[4] = system: BFU-E (precursor cells of erythrocytes); conditions: literature report, J. Clin. Invest. Vol. 67, 1263-1269:1981; cited from earlier work
[5] = system: CFU-GM (precursor cells of granulocytes and macrophages); conditions: literature report, J. Clin. Invest. Vol. 67, 1263-1269:1981; cited from earlier work

Row | Molecule | platelet count relative to the initial value (platelet count [1]; day 2 until day 6) | platelet count relative to the initial level (platelet count [1]; day 13) | platelet count (platelet count [2]; 200 and 800 μg/kg, day 5) | platelet count versus control (platelet count [2]; all treated groups (50, 200 and 800 μg/kg), day 7) | platelet counts versus control (platelet counts) | platelet increasing action (platelet count [3]) | in vitro colony formation by BFU-E [4] | in vitro colony formation by CFU-GM [5]
1 | human PTH(1-84) (protein, UniProt P01270 32-115, looked up, Parathyroid hormone) Parathyroid hormone: SVSEIQLMHNLGKHLNSMERVEWLRKKLQDVHNFVALGAPLAPRDAGSQRPRKKEDNVLVESHEKSLGEADKADVNVLTKAKSQ | two to four times as great as the initial value | substantially returned to the initial level | tendency to increase | significantly higher in platelet count than the control | significant increase in platelet counts over the control | platelet increasing action | – | –
2 | parathyroid hormone (PTH): PTH as studied in the literature report by Meytes et al; form and species not printed (protein, UniProt P01270 32-115, looked up, Parathyroid hormone) Parathyroid hormone: SVSEIQLMHNLGKHLNSMERVEWLRKKLQDVHNFVALGAPLAPRDAGSQRPRKKEDNVLVESHEKSLGEADKADVNVLTKAKSQ | – | – | – | – | – | – | interfered with the in vitro colony formation | interfered with the in vitro colony formation
